Assay results reported in patent publication US20260250651, “CAS12 PROTEINS AND USES THEREOF” (GUANGZHOU REFORGENE MEDICINE CO., LTD., published 2026).
Residue numbers refer to the chain shown, from its start.

T1: Cas12i (wild-type, from CN111757889B)
T1 chain: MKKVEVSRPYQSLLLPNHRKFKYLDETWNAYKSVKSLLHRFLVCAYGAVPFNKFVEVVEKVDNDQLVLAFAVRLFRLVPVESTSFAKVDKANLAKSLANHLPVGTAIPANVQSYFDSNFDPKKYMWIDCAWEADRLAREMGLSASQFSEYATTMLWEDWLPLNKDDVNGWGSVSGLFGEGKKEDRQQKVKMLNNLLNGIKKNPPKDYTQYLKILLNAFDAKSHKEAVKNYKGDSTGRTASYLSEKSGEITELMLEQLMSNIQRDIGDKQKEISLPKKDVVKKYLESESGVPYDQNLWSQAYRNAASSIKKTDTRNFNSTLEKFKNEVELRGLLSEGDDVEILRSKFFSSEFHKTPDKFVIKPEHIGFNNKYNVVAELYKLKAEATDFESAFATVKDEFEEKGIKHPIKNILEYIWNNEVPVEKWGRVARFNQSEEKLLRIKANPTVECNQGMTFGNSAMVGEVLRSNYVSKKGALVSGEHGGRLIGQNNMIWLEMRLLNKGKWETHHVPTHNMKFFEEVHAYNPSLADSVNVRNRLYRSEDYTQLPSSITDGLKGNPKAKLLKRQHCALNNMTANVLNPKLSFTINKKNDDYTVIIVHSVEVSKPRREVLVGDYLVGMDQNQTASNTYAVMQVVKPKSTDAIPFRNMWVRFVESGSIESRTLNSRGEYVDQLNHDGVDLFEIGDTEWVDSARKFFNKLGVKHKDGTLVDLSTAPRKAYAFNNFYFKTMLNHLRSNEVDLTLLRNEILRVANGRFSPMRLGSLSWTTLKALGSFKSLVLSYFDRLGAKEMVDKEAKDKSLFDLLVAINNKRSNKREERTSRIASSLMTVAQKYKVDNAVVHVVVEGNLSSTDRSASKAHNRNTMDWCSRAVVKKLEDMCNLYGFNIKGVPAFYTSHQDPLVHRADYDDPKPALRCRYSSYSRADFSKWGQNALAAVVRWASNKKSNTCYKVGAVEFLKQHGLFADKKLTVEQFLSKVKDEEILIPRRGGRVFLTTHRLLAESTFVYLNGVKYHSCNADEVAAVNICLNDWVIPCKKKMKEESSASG

T2: Cas12i-30 (N295R,N260R)
T2 chain: T1 chain with N260R, N295R

B1: gRNA-HBG ; HBG target (ssRNA ; dsDNA)
RNA: AGAGAAUGUGUGCAUAGUCACACACAAGGCAAACUUGACCAAU
DNA 1: ACAAGGCAAACTTGACCAAT
DNA 2: ATTGGTCAAGTTTGCCTTGT
B2: gRNA-TTR ; TTR target (ssRNA ; dsDNA)
RNA: AGAGAAUGUGUGCAUAGUCACACCAGUAAGAUUUGGUGUCUAU
DNA 1: CAGTAAGATTTGGTGTCTAT
DNA 2: ATAGACACCAAATCTTACTG
B3: gRNA-HBB ; HBB target (ssRNA ; dsDNA)
RNA: AGAGAAUGUGUGCAUAGUCACACUAUGCAGAAAUAUUGCUAUUGCCU
DNA 1: TATGCAGAAATATTGCTATTGCCT
DNA 2: AGGCAATAGCAATATTTCTGCATA

Experiments:
[1] = molecular target: T1, Cas12i (wild-type, from CN111757889B); assay: cell_activity; 293T indels, reference; PAM not stated
Experimental: (§1) Plating: The 293T cell line was plated when the confluence reached 70-80%, and the number of cells seeded in a 24-well plate was 5*10\hat{ }5 cells/well.
(§2) Transfection: After 12-14 hours of plating, transfection was performed. 100 μl of Opti-MEM, 1.5 μl of PEI (Yisheng Bio, Polyethylenimine Linear (PEI) MW25000), 250 ng of the mutant clone plasmid from Example 2, and 250 ng of gRNA plasmid for targeting endogenous genes were added to each well of a 24-well plate. The mixture was incubated at room temperature for 20 minutes and then added to 293T cells for transfection. After transfection overnight, the medium was replaced with fresh medium and cultured for the next period.
(§3) DNA extraction, PCR amplification, and Sanger sequencing: After culturing for 72 hours, cells were washed with PBS, and then 100 μl of cell lysis buffer (Viagen, DirectPCR® Lysis Reagent (Cell)) was added for lysis to obtain a lysate containing genomic DNA. The genomic DNA was amplified in the region near the target sequence, and the PCR product was sent to a sequencing company for Sanger sequencing.

[2] = molecular target: T2, Cas12i-30; assay: cell_activity; 293T indels; editing >10%
Experimental: as §1, §2, §3

[3] = molecular target: T2, Cas12i-30; assay: cell_activity; 293T indels, reference; editing >10%
Experimental: as §1, §2, §3

| Binder | indel editing activity [1] | relative indel editing efficiency [2] | relative indel editing efficiency [3] |
| --- | --- | --- | --- |
| B1 | 1 fold of wild type | – | – |
| B2 | 1 fold of wild type | 1.89 fold of wild type | – |
| B3 | – | – | 1 fold of Cas12i-30 |
